The values below come from publication PMC11670252, “Antibody-mediated clearance of an ER-resident aggregate that causes glaucoma” (PNAS Nexus, 2024).

The target in this experiment is T1, endogenous full-length myocilin from conditioned media of primary human TM cells (Homo sapiens, UniProt Q99972).
T1 construct: myocilin, human, endogenous, secreted into the medium; called full-length (~55 kDa); also called endogenous full-length myocilin (~55 kDa)
Put plainly: immunoprecipitation; antibodies incubated with 15 mL conditioned medium of primary human TM cells without enrichment, or HBS buffer as control; myocilin found by Western blot. Particulars: one partner purified. In general terms: In western blotting, separated proteins are transferred to a membrane and probed.

T1 sequence (Q99972 33-504): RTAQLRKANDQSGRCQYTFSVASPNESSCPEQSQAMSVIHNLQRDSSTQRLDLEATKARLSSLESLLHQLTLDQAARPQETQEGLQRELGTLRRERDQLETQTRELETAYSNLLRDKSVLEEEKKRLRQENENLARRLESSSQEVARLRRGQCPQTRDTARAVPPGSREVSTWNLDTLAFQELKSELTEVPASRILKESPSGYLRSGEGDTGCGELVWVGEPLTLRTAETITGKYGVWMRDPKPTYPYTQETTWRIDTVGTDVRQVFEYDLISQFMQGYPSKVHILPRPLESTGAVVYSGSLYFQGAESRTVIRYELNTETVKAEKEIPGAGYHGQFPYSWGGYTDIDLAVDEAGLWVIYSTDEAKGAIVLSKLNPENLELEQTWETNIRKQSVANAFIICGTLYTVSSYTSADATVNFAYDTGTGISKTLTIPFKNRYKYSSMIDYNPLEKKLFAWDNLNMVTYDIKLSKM

B1: anti-OLF1 chimeric IgG (murine variable domains, human IgG1/kappa constant domains) (antibody, V domains shown)
VH: QVQLQQSGPELVKPGASVKISCKTSGYTFTENTMHWVRQSHGKSLEWIGGIHPNNIGSTYNQKFKGKATLTVDKSSSTAYMELRSLTSEDSAVYYCTRGATAPFAYWGQGTLVTVSA
VL: DIVMTQTPLSLPVSLGDQASISCRSSQSIVHSNGNTYLHWYQQKSGQSPKLLIYKVSNRFSGVPDRFSGSGSGTDFTLKISRVEAEDLGVYFCSQSTHVPPTFGGGTKLEIK
As for B1, the binding result was “binds”.
